Test results: the DeepSol protein solubility set

Experiment: soluble on expression in E. coli; label from the status in PepcDB or PDB records

Row | Sequence | soluble on expression in E. coli
1 | MLKRTRSLVCLCLAAAISSPTTYANSIDLPDIGTAAGGTLSIDQELIYGDAYMRMLRASKPIVNDPVINEYIDSLGHRLVANANDVKTPFHFFMIRDRNINAFAFFGGYVALHSGLFLHARSESELASVVAHEIAHVTQRHLARSMEDQARRSPATLAALAGALLLSIASPEAGMAAITAATAGNMQSQINYTRSNEKEADRFGIATLAKAGFDVQAMPRFFGRLADEYRYASKPPPMLLTHPLPEDRVADSRQRAQAYPPMRIAPSIDYHLARARIVARYAGIDGQAALGWFERTQKKASADIMPSFDYGRALVHLDNKRLSQAEPILKKLLAQDPGNPFYLDAMTDLYIEKKQPQKAVELLNSALKRNPQNKVLTINYANALLEANQNDQAVRTLQRYTHDNPEDSNGWQLLSKGYHALGRSDEELAARAEILALRANWNKAIQYYSEASKMAELGSLEQARYDARIDQLMIQRDRFMALQLEHHHHHH | soluble
2 | GPLGSNEEANRFANQAKLRVQEAVFYIWSDKTLKYSQMANDEAESFRNTWLLFRSFQQWITLTQTFKEQSRLADQAFLNKMFRKILKAQEHWKH | soluble
3 | MRFTVTSRGDDVSNTLQQKIKRYLLDFGLTLDEQEPDIVITVGGDGTLLHAFHRYTSRLEDTAFVGIHTGHLGFYADWVPDEVEKLVIHIAKTPYQIVEYPLLEVVVRHTDESESKRLLALNECTVKSQEGSLVSNVEIKGDVFEVFRGDGLCISTPSGSTAYNKALGGAILHPSLASIQISEMASINNRVYRTIGSPLVLPQHHTCLIKPLNQVELQVTIDHFTLAYKRVKSIQCRVAEEKIRFARFRPFPFWKRVKESFIGDSLEHHHHHH | soluble
4 | MGSDKIHHHHHHMASLVDQITDLYVRMAELERRNRNRRRKGTIAEVSDDKSKYRVKLSEQAGKPYLTPWIKARTLAAGGVKVDVLYSVGEQVDVVSENGEMTDAQIDFSTYSDDNARENSDTPFHIKIGDTVIEASAGQAKVTSPKVIVESPNVQLGGDGGKRVARIGDLVHVMSGSSSGKWPIVEGSEHVFAVD | not soluble
5 | QVKEVQIRFEKDALHNIMEMQYKNYQLSKENIDMVNQKYHDLKHQINILKTQSYTGKSTNYLEKMEREIRVYETQNKTGNQILDAVLTNKAMICQNKEIELKFIVDGEALSFMDDMDVSALFGNMLDNAIESAEKQQEKQKRLIWLYVTREKQFVRIRTENYCDEKIHFKNGMPVTTKKDRRLHGYGMKSIKSTVEKYHGSVVAAQENNWFELKILLPAGR | not soluble
6 | VGGHEKVISLGFDASKGFHTYAFDWQPGYIKWYVDGVLKHTATANIPSTPGKIMMNLWNGTGVDDWLGSYNGANPLYAEYDWVKYTSNQTGGSFFEPFNSYNSGTWEKADGYSNGGVFNCTWRANNVNFTNDGKLKLGLTSSAYNKFDCAEYRSTNIYGYGLYEVSMKPAKNTGIVSSFFTYTGPAHGTQWDEIDIEFLGKDTTKVQFNYYTNG | soluble
7 | MGSDKIHHHHHHMLESNPPKSLYRETAGGIGDYCALAGAQRARVAIVGGGFTGLSTALHLAEAGDDVAVLEAQQPGWGASGRNGGQVNPGLKYDPDTIEAMFGPELGPRMIDFSYGAPDFTFGLIKRLSIACDARQNGTIRAAIRPKPQAAVRTTAAQCQRRGMPVSMVDAQAMATRTGTGRYIAGMFDARGGDLHPLKYTIGLAAAARNASARIFGGSEVLSLKREAGRWVLKTANGSVSAEKVLVATNGYTGALWPGLEQSLVPVFSAIAATEPLAPAAAAQILPDRPVLYEAGNITVYYRIDAQNRLLMGGRGPMKPIGDASAIRYLTDYALRLWPALAGVRWTHGWNGRVAITKDHLLHIHEPEDGVLICLGYNGRGVAMASAMGAALAQRLQGRETSPFPMPISPLKPIRFHRFWPLGVKAAILSGRLKDRFGL | not soluble
8 | MDMNFDLYMNGVVEQARNEIESAGYEQLTTAEDVDKVLKQDGTTLVMINSVCGCAGGIARPAASHALHYDVLPDRLVTVFAGQDKEATQRAREYFEGYAPSSPSFALVKDGKITEMIERHQIEGHDVMNVINQLQTLFNKYCEERLEHHHHHH | soluble
9 | MSLNDLVMDVDLDFADGQSPMRTKKANEIIRDPISGSVVIPIDADKFPKESHNSPLVFKLGNGANENIMHVKSQKDVNLYPVPLSTSDFSENFINYICNLFDIYQDLGSHRIFSRPTIGVISSDYELEHTRVVNMALDSMIIELEILIASYDKLENANIARILELEQCLVILQCLRTFQFIDSINDRATFFDSLLKWTNRTDGEPKVEYIQSIFGQSDSSQVFFTEPFWKLVYQLLLRGLTEQAINTLEKSELAKYLKENCETTSTIFEDFIQLVKNYPLESEEHFREWKSFALELQQNFEDADTKIPVPLRKNLLDAISITAGNRDKILQHSSFWYESLTGFLLYYIPSEELIQEYVGLAVSKTPIDVTNPWETACLKILQNDIFPVLPILESLDNCTASFSAALCESKGLLIDRYTILEENSGSDDIEIDDIFSQRNGMASFLLNNFALELCSMKMKTLWPVAIGLISLSPYNTPSSKKSTIAELIPHYPFETNDDIEWALSVCAKWRLPDIAKEIYTTLGNQMLDNGNTVEAIANFSKAGQYELVKHYSWLLFENAAFQGKPMEDEVLSAIVDGDFNTSELIPDEVLNKVVTNAMRQSLSPYAVLSQFFSNVENERWSKALQQLMSLIEFEYLPKKYTVLLIVKYMYPLFLNDDQRMIDEETLVSLLAAIEKNWDCDDTDSVIAYEKLSEEIADLPKELKSMEKLIRKKLNGKLCLNLMIEGHHHHHH | soluble
10 | MGSDKIHHHHHHMITNQKLKKSLEEIKNITSFDAILYSAKGKHLTGTVEEPEHSDIFVKEFIVSEEDVREKNDAIAFAVEIDSELEYVLVMFCPYTSENLVIGRMAVCQLRTLVLGESERYDRNNFIQNILLGNMLGSDIINRAKKLHIENRKRVVYVIDTGKNSNEIAVELAKNLADIRSGDFVVAMDEHNVVLVKDVEDIDSPKLQEKLSSIAGSLVDNLLAEAMIKVRVGYGNPTDVLPKITESYQEAKMALEVGRLFYVEKEIMAYDRLGIGRLIYQLPMSLCEMFIREVFGDEVPQILDDEEAMSTISKFFENNLNISETARQLYVHRNTLVYRLERIEKSIGLDIRTFDDAMIFKIATMVLAHIKDSRQGR | not soluble
11 | MEHWYCTNMVGVPVGLIGSTAFNRCLRRITIHGTRETHPGLFRLLAACEYPATASEVFEHYMELEFGLAPGAHEPTQARYPTSYLDLLRGWGVESDCPKAAVLKGWVESRFGLVPTFHKQRLGLFPSSAWATYLQEKTDVRFHNNCIFQQFDLLYEYCQWSIRRFKTPGPRFVRLWRGTNDVEQQLVEGDARQRLCTVRLNNLVSFSDSKERAEEFGDWVLETEVPTVKLLFFPGLLQRQVLGYEGEFLVIGGNYKVRAYHGWFLEHHHHHH | soluble
12 | MGSDKIHHHHHHETTSTQTVDEQAVFNDTQSAMLAVNGLHKLMWTGDLSSSAFYGGYDMLMIWYEVMGDDLVYTYSNAQFQKQAQWSSHRNATIGSATHFYRLLQYFISNSSMIIDNIDAAEGLESERNYIKGQAHFYRAFAYFTMVQMYGGRYKAEGDNTQLGVVIRNDNSTEPRARASVEEVYTQINEDIDLAIQLLGATEEKRTNKSHIDLHVARGLKARILLTQGKWLEAAEMAKLVVDLSGAKLQDDTYTTLNDRFSDQSNTEWLWGSNPLLQQAPNLTHFHGYMSNEIISYNGNTPRAIYNKLYDKISDTDVRKGIWFPRATDPNTLPRPIRAECNSKAYANYMANKFIVSDPTTKGGRDVPFMRLPEMMLIMAEGYARAGEPGKAAQALYPLASHRDPEYTLSTKTGENLIEEVMTQRRIELWGEGFRWFDLKRLNMDLDRGPAPRPEVFPNGLIEYWNKDAMPKVVDPEASNYNMYGDGTVTGNGNRYRPAGHRDWQWAIPDKETQLNPLCEPNP | not soluble
13 | MVFNRVVQIGRVVFIASGKDQGKLAAIVNVIDGNRVQIDGPSSDVTRTVRNLKDLQLTKFVLKLRVGQRTKGVKAAFDAAKVTENFQKTQWAKKIAQRAIRAKLTDFERYKLMKAKQMRNRIVRVELAKLKKAQK | not soluble
14 | MSLRLHFHTQEMPMPALLYKADPARAERWRVLFAEHAPDIEWRVWPDIGDPADIHYLGAWLAPDDLQDLLPNLKVLFALSAGVDQLDLSRIPKSLPVVRLLDPGISHGMCEYASFAVLSLHREMLRYRQQQVEGLWKAQPLIPANKRRVGVMGLGLQAQHILSSLKPFGFQLSGWARSAHQVEGVTCYAGEEQLSEFLGQCDILLCVLPLTAQTEGILNRQLFERLPEGAALINMGRGGHLVEADLLEALDSGQLSAAVLDVLQQEPAPADHPFWQHPKILLTPHVAAMTQPESAFPGLLDNIRRFERGEAMQGQVNRGEGHHHHHH | soluble
15 | MGSDKIHHHHHHMIRMNISVRNLKEITDLLSTIVSEAKFKVDENGMSVTAVDPAHVAMIRLEVPKEVFSEFRSDGTEEIALDIDRLKSVIRLANSSENVGITKDKEKLKFDLGNISKSVSLLDPSTIVTPKIPNIASEYYAIIKRSDFERGLRAAEDISDSIRFVLSSEGFRATSHSESEESEMVLPKDMLSDLSCSDTIKSSYPLEYLLKFIKAVSSADSLKISFRDDYPLSIEFYLDQNPSAKIKGLFLLAPRMEQ | not soluble
16 | VELPTEYTEQFSSQPTLNSKPIIKFEFTGNSVDAPVLSMASKKFGIDFSILMSQIDYAGGVKFGFVIAEVEGDGEAITAAKCYLINNNVKVEVLGYVG | not soluble
17 | MDKELIKKNIKLMDATIEKMIHVMSSIHKLQLSVKELEDSNELTVSYVKRECTKLEERVKELRPSISRCVFMYREYVEEFETKLRDRIVTEKFFRIKRFYGKEVLAFKEFQEKYQNYIPKDIIDIKKQVRQKLEEVGYEIDGAFEGDFTSWVGVYARPKDKPTYLDPANAEEVVLQEKYSVNGFKQDFSEWFEFEIKDNVVYGILEHHHHHH | soluble
18 | PQEKLKLLAFTGTKGKTTAAYFAYHMLKESYKPAMFSTMNTTLDGKTFFKSQLTTPESLDLFAMMAECVTNGMTHLIMEVSSQAYLVDRVYGLTFDVGVFLNISPDHIGPIEHPTFEDYFYHKRLLMENSRAVVINSGMDHFSFLADQVADQEHVFYGPLSDNQITTSQAFSFEAKGQLAGHYDIQLIGHFNQENAMAAGLACLRLGASLADIQKGIAKTRVPGR | not soluble
19 | MAHHHHHHMTGSTHNGGSRLIQYEDSSNKEFIRKYLVETRNEFIEKQMRALYECREIYKDDIDEVINILTYALENNDSVLLRHEVAYVIGQISNEKCNDILIKLLNDTEENLMVRHEAAEGLAAIGSDSNIEVIKKFLNDEKVEVRETCELALSSLLEKNKYAVCSCSNKDSIKEAIKKKRNDEFVSKKFNTIDPVVFTSSGNAKSVDALIEDLNNEAVPLKLRYEALFKLRDMETDVSINALGEVLIKDKKSAIFRHEVAFVLGQALHLNSLKYLISSLQNVGEHEMVRHEVALALGSLGSLNINSQEYKNVQSEIISTLKTFSKDACRVVAESCLVGLDYIAENLNMAIEVN | not soluble
